In patent publication US20250282852A1 (SINOMAB BIOSCIENCE, published 2025):

Key:
[1] = target: T1, human CD22 protein (Sino Biological) (human); assay: ELISA on coated human CD22 protein, anti-human Fc HRP detection
T1 construct: Bought protein coated on ELISA strips
Description: The binding of the different bispecific antibodies to their respective antigens is tested with standard ELISA method known to those skilled in the art. Using SM03-Adu as an example, 2 μg/mL of human CD22 protein (Sino Biological) or 5 μg/mL of Aβ oligomer are coated separately onto ELISA stripes (Santa Cruz) overnight at 4° C. or 1 hour at room temperature, respectively. ELISA stripes are blocked with 1% BSA in PBS. Stripes are washed 2 times with PBS. Bispecific antibodies are added in the following concentration, e.g. 10 μg/mL, 2 μg/mL, 0.4 μg/mL, 0.08 μg/mL, 0.016 μg/mL, 0.0032 μg/mL, 0.00064 μg/mL and incubated for 1 hour at room temperature. Stripes are washed 3 times with PBS. Stripes are incubated with anti-human Fc HRP-conjugated antibody diluted 1:6000 in PBS for 1 hour at room temperature. Fifty μL TMB (Invitrogem) is then added. After 30 minutes incubation at room temperature, 50 μL stop solution (2N H2SO4) is added to stop the reaction. Coloration are read by plate reader.

[2] = target: T2, CD33 on HMC-3 cells (human, UniProt P20138 18-364); assay: flow cytometry on fixed HMC-3 cells, 10 µg/mL, anti-human Fc Alexa Fluor 488; graded + (weakest) to +++++ (highest)
T2 construct: Native antigen on HMC-3
Description: The binding of different bispecific antibodies to HMC-3 cells is evaluated. Briefly, HMC-3 cells are seeded onto 6 well plate at a density of […]. After plating and culture for overnight, cells are detached with TrypLE™ Express enzyme. Cells are centrifuged at 300 g for 5 minutes. Cell pellets are washed once with phosphate buffer saline (pH7.4). Cells are fixed with 4% PFA in PBS for 5 minutes at room temperature. Cells are washed once with PBS. Bispecifc antibodies at a concentration of10 μg/mL are incubated with HMC-3 for 1 hour at room temperature. Cells are then washed twice with PBS. Cells are incubated with anti-human Fc Alexafluor 488-conjugated antibody diluted 1:1000 in PBS for 1 hour at room temperature. Cells are washed twice with PBS. Cell are centrifuged at 300 g for 5 minutes. Cell pellet is resuspended with 1% BSA in PBS and proceed to flow cytometry. FIG. 5 illustrates a representative result of HMC-3 cell binding by SM03-Adu.

T2 sequence (P20138 18-364 limits assumed): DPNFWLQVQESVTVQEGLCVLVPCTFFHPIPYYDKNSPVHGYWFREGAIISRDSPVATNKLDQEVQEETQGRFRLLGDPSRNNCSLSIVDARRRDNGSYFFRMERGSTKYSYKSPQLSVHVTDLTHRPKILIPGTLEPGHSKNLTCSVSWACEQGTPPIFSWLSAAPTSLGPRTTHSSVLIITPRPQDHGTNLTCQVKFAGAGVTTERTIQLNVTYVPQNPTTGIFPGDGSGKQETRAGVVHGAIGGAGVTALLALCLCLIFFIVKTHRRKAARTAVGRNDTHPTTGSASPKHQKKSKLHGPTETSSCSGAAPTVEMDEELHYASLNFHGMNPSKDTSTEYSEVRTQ

B1: SM06-Adu (bispecific antibody)
heavy: not shown
light: DIQLTQSPSSLSASVGDRVTISCRASQDISNYLNWYQQKPGKAPKLLIYYTSILHSGVPSRFSGSGSGTEFTLTISSLQPEDFATYFCQQGNTLPWTFGGGTKVEIKRTVAAPSVFIFPPSDEQLKSGTASVVCLLNNFYPREAKVQWKVDNALQSGNSQESVTEQDSKDSTYSLSSTLTLSKADYEKHKVYACEVTHQGLSSPVTKSFNRGEC
EC50 (read off the curve) [1]: ~0.1 µg/mL

B2: Lin-Adu (bispecific antibody)
heavy: not shown
light: DIQMTQSPSSLSASVGDRVTITCRASESVDNYGISFMNWFQQKPGKAPKLLIYAASNQGSGVPSRFSGSGSGTDFTLTISSLQPDDFATYYCQQSKEVPWTFGQGTKVEIKRTVAAPSVFIFPPSDEQLKSGTASVVCLLNNFYPREAKVQWKVDNALQSGNSQESVTEQDSKDSTYSLSSTLTLSKADYEKHKVYACEVTHQGLSSPVTKSFNRGEC
binding result [2]: binds
